Measured values taken from patent US7994123B2, “Hybrid proteins with ErbB4 extracellular domain and neuregulin heparin-binding domain for targeting” (Wayne State University, priority 2004, dated 2011).
Where “and” joins values, the source holds several entries; their conditions need not be identical. Equal values may be shown once.

B1: B4-HA: extracellular domain of erbB4 expressed alone without the HBD, HA tag (control) (protein)
chain: VCAGTENKLSSLSDLEQQYRALRKYYENCEVVMGNLEITSIEHNRDLSFLRSVREVTGYVLVALNQFRYLPLENLRIIRGTKLYEDRYALAIFLNYRKDGNFGLQELGLKNLTEILNGGVYVDQNKFLCYADTIHWQDIVRNPWPSNLTLVSTNGSSGCGRCHKSCTGRCWGPTENHCQTLTRTVCAEQCDGRCYGPYVSDCCHRECAGGCSGPKDTDCFACMNFNDSGACVTQCPQTFVYNPTTFQLEHNFNAKYTYGAFCVKKCPHNFVVDSSSCVRACPSSKMEVEENGIKMCKPCTDICPKACDGIGTGSLMSAQTVDSSNIDKFINCTKINGNLIFLVTGIHGDPYNAIEAIDPEKLNVFRTVREITGFLNIQSWPPNMTDFSVFSNLVTIGGRVLYSGLSLLILKQQGITSLQFQSLKEISAGNIYITDNSNLCYYHTINWTTLFSTINQRIVIRDNRKAENCTAEGMVCNHLCSSDGCWGPGPDQCLSCRRFSRGRICIESCNLYDGEFREFENGSICVECDPQCEKMEDGLLTCHGPGPDNCTKCSHFKDGPNCVEKCPDGLQGANSFIFKYADPDRECHPCHPNCTQGCNGPTSHDCIYYPWTGHSTLPQHAKN
modifications: left off: small tags and cut ends
B2: HBD-B4-HA: fusion polypeptide: NRG heparin-binding domain N-terminal to erbB4 extracellular domain, no spacer, HA tag (protein)
chain: SAAGSQSPALPPRLKEMKSQESAAGSKLVLRCETSSEYSSLRFKWFKNGNELNRKNKPQNIKIQKKPGKSELRINKASLADSGEYMCKVISKLGNDSASANITIVEVCAGTENKLSSLSDLEQQYRALRKYYENCEVVMGNLEITSIEHNRDLSFLRSVREVTGYVLVALNQFRYLPLENLRIIRGTKLYEDRYALAIFLNYRKDGNFGLQELGLKNLTEILNGGVYVDQNKFLCYADTIHWQDIVRNPWPSNLTLVSTNGSSGCGRCHKSCTGRCWGPTENHCQTLTRTVCAEQCDGRCYGPYVSDCCHRECAGGCSGPKDTDCFACMNFNDSGACVTQCPQTFVYNPTTFQLEHNFNAKYTYGAFCVKKCPHNFVVDSSSCVRACPSSKMEVEENGIKMCKPCTDICPKACDGIGTGSLMSAQTVDSSNIDKFINCTKINGNLIFLVTGIHGDPYNAIEAIDPEKLNVFRTVREITGFLNIQSWPPNMTDFSVFSNLVTIGGRVLYSGLSLLILKQQGITSLQFQSLKEISAGNIYITDNSNLCYYHTINWTTLFSTINQRIVIRDNRKAENCTAEGMVCNHLCSSDGCWGPGPDQCLSCRRFSRGRICIESCNLYDGEFREFENGSICVECDPQCEKMEDGLLTCHGPGPDNCTKCSHFKDGPNCVEKCPDGLQGANSFIFKYADPDRECHPCHPNCTQGCNGPTSHDCIYYPWTGHSTLPQHAKN
modifications: left off: small tags and cut ends
B3: B4-HBD-HA: fusion polypeptide: erbB4 extracellular domain with NRG heparin-binding domain C-terminal, HA tag (protein)
chain: VCAGTENKLSSLSDLEQQYRALRKYYENCEVVMGNLEITSIEHNRDLSFLRSVREVTGYVLVALNQFRYLPLENLRIIRGTKLYEDRYALAIFLNYRKDGNFGLQELGLKNLTEILNGGVYVDQNKFLCYADTIHWQDIVRNPWPSNLTLVSTNGSSGCGRCHKSCTGRCWGPTENHCQTLTRTVCAEQCDGRCYGPYVSDCCHRECAGGCSGPKDTDCFACMNFNDSGACVTQCPQTFVYNPTTFQLEHNFNAKYTYGAFCVKKCPHNFVVDSSSCVRACPSSKMEVEENGIKMCKPCTDICPKACDGIGTGSLMSAQTVDSSNIDKFINCTKINGNLIFLVTGIHGDPYNAIEAIDPEKLNVFRTVREITGFLNIQSWPPNMTDFSVFSNLVTIGGRVLYSGLSLLILKQQGITSLQFQSLKEISAGNIYITDNSNLCYYHTINWTTLFSTINQRIVIRDNRKAENCTAEGMVCNHLCSSDGCWGPGPDQCLSCRRFSRGRICIESCNLYDGEFREFENGSICVECDPQCEKMEDGLLTCHGPGPDNCTKCSHFKDGPNCVEKCPDGLQGANSFIFKYADPDRECHPCHPNCTQGCNGPTSHDCIYYPWTGHSTLPQHAKNSAAGSQSPALPPRLKEMKSQESAAGSKLVLRCETSSEYSSLRFKWFKNGNELNRKNKPQNIKIQKKPGKSELRINKASLADSGEYMCKVISKLGNDSASANITIVE
modifications: left off: small tags and cut ends
B4: HBD-S-B4-HA: fusion polypeptide: NRG heparin-binding domain, glycosylated spacer, erbB4 extracellular domain, C-terminal HA tag (protein)
chain: QSGYKKKERGSGKKPESAAGSQSPALPPRLKEMKSQESAAGSKLVLRCETSSEYSSLRFKWFKPNGNELNRKNKQNIKIQKKPGKSELRINKASLADSGEYMCKVISKLGNDSASANITIVESNEIITGMPASTEGAYVSSESPIRISVSTEGANTSSSTSTSTTGTSGTQSVCAGTENKLSSLSDLEQQYRALRKYYENCEVVMGNLEITSIEHNRDLSFLRSVREVTGYVLVALNQFRYLPLENLRIIRGTKLYEDRYALAIFLNYRKDGNFGLQELGLKNLTEILNGGVYVDQNKFLCYADTIHWQDIVRNPWPSNLTLVSTNGSSGCGRCHKSCTGRCWGPTENHCQTLTRTVCAEQCDGRCYGPYVSDCCHRECAGGCSGPKDTDCFACMNFNDSGACVTQCPQTFVYNPTTFQLEHNFNAKYTYGAFCVKKCPHNFVVDSSSCVRACPSSKMEVEENGIKMCKPCTDICPKACDGIGTGSLMSAQTVDSSNIDKFINCTKINGNLIFLVTGIHGDPYNAIEAIDPEKLNVFRTVREITGFLNIQSWPPNMTDFSVFSNLVTIGGRVLYSGLSLLILKQQGITSLQFQSLKEISAGNIYITDNSNLCYYHTINWTTLFSTINQRIVIRDNRKAENCTAEGMVCNHLCSSDGCWGPGPDQCLSCRRFSRGRICIESCNLYDGEFREFENGSICVECDPQCEKMEDGLLTCHGPGPDNCTKCSHFKDGPNCVEKCPDGLQGANSFIFKYADPDRECHPCHPNCTQGCNGPTSHDCIYYPWTGHSTLPQHAKN
modifications: left off: small tags and cut ends

System: not listed separately
Assay: Heparin column binding
Details: conditioned media; anti-HA western blot of flow through and elution
Description: (§1) 4. Cell culture: The L6 cells were cultured in DMEM supplemented with 10% fetal calf serum, 1 mM L-glutamine and 1000 U/ml penicillin/streptomycin at 37° C. in 10% CO2 incubator. The HEK293 cells were cultured in DMEM with 10% fetal calf serum, 1 mM L-glutamine, 2 mM sodium pyruvate, 0.1 mM non-essential amino acids, 1000 U/ml penicillin/streptomycin at 37° C. in 10% CO2 incubator. The selective antibiotics Geneticin 200 μg/ml (Gibco-Invitrogen) was added to the cell cultures of stably transfected HEK293 cells harboring the NRG antagonists. 5. Stable expression of NRG antagonists in HEK293 cells: HEK293 cells were cultured in […] flasks to 80% confluence and transfected with the four NRG antagonist constructs using lipofectamine 2000 (Invitrogen Life Science) as instructed. The antibiotic Geneticin was then added at a concentration of 400 μg/ml to the transfected HEK293 cells to select the positive antagonist transfected cells. After three weeks of Geneticin selection, the transfected HEK293 cells were diluted and plated in 96 well plates to yield single positive clones. The single clones that expressed the highest levels of antagonists (confirmed by western blot using HA antibody) were then maintained in culture media with 200 μg/ml Geneticin. Optimem I (Gibco-Invitrogen) was applied to the stably transfected NRG antagonist cell lines at 37° C. in 10% CO2 incubator for 2 days. The conditioned Optimem I media was then used in the following experiments. 6. Heparin column binding: The conditioned media containing the four NRG antagonists was passed through the heparin column to allow binding to heparin. The excessive unbound antagonist proteins were washed off by 1×PBS twice. The antagonist proteins were then eluted by increasing concentration of NaCl (0.25, 0.3, 0.4, 0.5, 0.6 and 1M). The flow through solution from each step was examined by anti-HA western blots, as described later, to determine heparin binding ability of the antagonists. 7. Purification and quantitation of recombinant proteins: The NRG antagonists were purified by anti-HA affinity matrix (3F10) (rat mAb) according to manufacturer's instructions. Briefly, the column was equilibrated with buffer containing 20 mM Tris pH 7.5, 0.1 M NaCl, 0.1 M EDTA, and each antagonist in conditioned medium was applied individually to the anti-HA affinity matrix. Excess unbound antagonist proteins were washed with 20 volume of washing buffer (20 mM Tris pH 7.5, 0.1 M NaCl, 0.1 M EDTA and 0.05% Tween 20). The bound NRG antagonists were eluted with 0.1 M glycine (pH 2). The purified recombinant protein was then quantified using a BioRad Protein Assay kit (Bio-Rad, Hercules, Calif.) 8. Silver stain: Both the conditioned media and the purified NRG antagonists were resolved on 7.5% reducing SDS-polyacrylamide gels. The gel was fixed with 30% ethanol and 10% acetic acid for 30 min. 10% ethanol and ultrapure water were used subsequently to wash the gel before staining with SilverSNAP stain solution with enhancer for 30 min. The gel was then developed using SilverSNAP developer solution with enhancer. 5% acetic acid was used to stop the reaction when the desired band intensity was reached. The gel was dried on filter paper using a vacuum gel dyer. 9. […] Positive control L6 cells were treated with 50 pM NRG alone. L6 cell lysates were prepared and run on 5% SDS-PAGE gel. Western blots of erbB receptor phosphorylation were performed using 4G10 antibody. 10. Western blot: Western blots were performed on both conditioned NRG antagonist media and the antagonist-treated L6 cells. The antagonist proteins and the L6 cells were solubilized in SDS sample buffer and boiled for 5 min as described above (see also Li et al., supra). The NRG antagonists run on 7.5% SDS-PAGE gel were detected by anti-HA mAb HA.11. Phosphotyrosine mAb 4G10 was used to detect phosphorylated erbB receptor (p185) in L6 cell western blot analysis following resolution on overrun 5% reducing SDS-polyacrylamide gels. […]

Molecule | binding to heparin column
B1 | did not
B2 | did not
B3 | bound the heparin column
B4 | bound the heparin column

Same assay, conditions: elution with increasing NaCl (0.25-1 M)

Molecule | NaCl concentration needed to elute from heparin column
B3 | 0.4 to 0.5 M
B4 | > 1 M and 1 M

System: erbB receptor phosphorylation (p185) in L6 cells
Assay: L6 assay: block of NRG-induced erbB receptor phosphorylation (p185)
Format: cell-based
Details: comparable amounts of antagonist with 50 pM NRG (IG-EGF form), 45 min
Description: as §1

Molecule | effect on NRG-induced p185 erbB receptor phosphorylation
B1 | little effect
B2 | little effect
B3 | dramatically reduced erbB receptor activation
B4 | dramatically reduced erbB receptor activation
